B1: PAX-interacting protein 1 (Mus musculus), Q6NZQ4 (parent)
chain: MSEPAPEVPEELFREVKYYAVGDIDPQVIQLLKAGKAKEVSYNALASHIISEDGDNPEVGEAREVFDLPVVKPSWVTLSVQCGALLPVNGFSPESCQIFFGLTACLSQVSSEDRSALWALVTFHGGSCQLNLNKKCTHLIVPEPKGEKYERAVKRTSIKIVTPDWVLDCVSEKRRKDEAFYHPRLIIYEEEEEEEEEGDNEEQDSQNEGSTEKSSVASSAVASPAEQPCSPKPRAEVSKGELMFDDSSDSSPEKQERSLNWAPAEAPPLNTAQRRLPQGKGPGLINLCANVPPVPGDILPPDMRGNLMAPGQNLQNSERSEILGTWSPAVRTLRNITNNADIQQINRPSNVAHILQSLSAPTKSLEQQVARGQQGHPNASAVLFGQAKGAPETHVLQQHHPPQQPQQQHPALHLQPQIMQLQQQQQQQQQQQQQPQPYPQPPSHQFPQQVHQHQFSQQQLQFPQQPLHPQQQLHRPQQQLQPFQQQHALQQQLHQLQQQQLQHHQLAQLQQQQQQQHNLLQQQQQQQQLQRLQQQQQMQNQAAHLSQASQALQHQVLPQQPLQLSLQPPPQQQQQQQLFGHDPAVEIPEESFLLGCVFAIADYPEQMSDKQLLATWKRIIQAHGGTVDPTFTSRCTHLLCASQVSSMYTQALRERKRCVTAHWLNTVLKKKKLMPPHRALHFPVAFPPGGKPCSQHIISVTGFVDNDRDDLKLMAYLAGAKYTGYLCRSNTVLICKEPSGLKYEKAKEWRIPCVNAQWLGDILLGNFEALRQVQYSRYTAFNMPDPFVPTPHLVLGLLDAWRTPVKVTAELLMGVRLPPKLKPNEVANIQPSSKRARIEDLPPPTKKLTPELTPLVLFTGFEPVQVQQYIKKLYILGGEVAECTKKCTHLIASKVTRTVKFLTAISVVKHIVTPDWLEECFKRQTFIDEQNYILRDAEAEVLFSFSLEESLKRAHVSPLFKTKYFYITPGICPSLATMKAIVECAGGKVLAKQPSFRKLMEHKQNKSLSEIILISCENDLHLCREYFARGIDVHNAEFVLTGVLTQTLDYESYKFN

The variants in this assay derive from B1. As to conditions: with pgr1a_mouse Pagr1a.
In the case of W165R, the “effect of a mutation on the interaction” value was “disrupting interaction”.
